Results: patent US20150218283A1 (BIOSCEPTRE INTERNATIONAL, published 2015)
Blank lines part the entries; values can stand above or below the binder they belong to.

Assays:
[1] = molecular target: T1, E200-300 peptide (complex peptide epitope of human P2X7 receptor); assay: ELISA; Fab
T1 peptide: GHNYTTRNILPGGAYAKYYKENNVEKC

[2] = molecular target: T2, E200-300 peptide (complex peptide epitope of human P2X7 receptor) (human); assay: method not stated
T2 construct: also called antigen E200-300
T2 peptide: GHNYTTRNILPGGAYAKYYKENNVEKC

[3] = molecular target: T2, E200-300 peptide (complex peptide …); assay: ELISA on the E200-300 epitope target

EC50 [1]: ~250 µg/mL
B1: 2F6 WT recombinant Fab (Fab, V domains shown)
VH: DVKLVESGGGLVKLGGSLKLSCAASGFTFSSYYMSWVRQTPEKRLELVAAINSNGGSTYYPDTVKGRFTISRDNAKNTLYLQMSSLKSEDTAFYYCTRHYSSRFFDVWGAGTTVTVSS
VL: DIVMTQSQKFMSTSVGDRVSVTCKASQNVGTNVAWYQQKPGQSPKALIYSASFRYSGVPDRFTGSGSGTDFTLTISNVQSEDLAEFFCQQYNSYPFTFGSGTRLEIK

Kd [2]: 50 nM
B2: 2F6 hIgG1 (antibody, V domains shown)
VH: B1 VH
VL: B1 VL

EC50 [3]: 0.14 µg/mL
B3: 2F6 IgM antibody (original mouse hybridoma antibody, IgM class with Kappa light chains) (antibody, V domains shown)
VH: B1 VH
VL: B1 VL
notes: Mouse IgM, kappa light chain, grown in mouse ascites; also called original IgM; IgM form of the original antibody

EC50 [3]: 1.6 µg/mL
B4: recombinant 2F6 mouse IgG2a (antibody, V domains shown)
VH: B1 VH
VL: B1 VL
notes: also called 2F6 mIgG2a; mouse IgG2a-2F6
